According to doi:10.1101/2022.06.06.494913 (bioRxiv, 2022):

Target: EIIA^Glc (UniProt P69783 2-169)
Experiment: SPR + ELISA

Sequence of EIIA^Glc (P69783 2-169): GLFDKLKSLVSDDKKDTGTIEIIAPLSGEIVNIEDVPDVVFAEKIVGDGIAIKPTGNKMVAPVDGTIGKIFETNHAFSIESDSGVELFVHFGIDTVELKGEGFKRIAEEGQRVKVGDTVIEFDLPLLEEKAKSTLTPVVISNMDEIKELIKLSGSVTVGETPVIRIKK

B1: EIIB^Glc (domain or fragment)
chain: EDATEDAKATGTSEMAPALVAAFGGKENITNLDACITRLRVSVADVSKVDQAGLKKLGAAGVVVAGSGVQAIFGTKSDNLKTEMDEYIRN
- Kd: > 10 µM
